Measurements reported in PMC2732903.
Each block holds one molecule with its values, some of them ahead of it.

Columns and labels:
[1] = test system: 21G (DNA, G4) GGGTTAGGGTTAGGGTTAGGG; assay: EMSA, inhibition of Topo IIIα binding; conditions: 100 mM NaCl; 50 mM HEPES pH 7.9, room temperature; 50 nM Topo IIIα displaced; 20 nM DNA; indirect
[2] = test system: Wt26 (DNA, G4) TTAGGGTTAGGGTTAGGGTTAGGGTT; assay: EMSA, inhibition of Topo IIIα binding; conditions: 100 mM NaCl; 50 mM HEPES pH 7.9, room temperature; 50 nM Topo IIIα displaced; 20 nM DNA; indirect
[3] = test system: Wt26 (DNA, G4) TTAGGGTTAGGGTTAGGGTTAGGGTT; assay: EMSA, inhibition of hPOT1 binding; conditions: 100 mM NaCl; 50 mM HEPES pH 7.9, room temperature; 30 nM hPOT1 displaced; 20 nM DNA; indirect
[4] = test system: 21Gmu (21G mu3) (DNA, single strand) GGCTTACGGTTAGCGTTAGGG; assay: EMSA, inhibition of Topo IIIα binding; conditions: 100 mM NaCl; 50 mM HEPES pH 7.9, room temperature; 50 nM Topo IIIα displaced; 20 nM DNA; indirect
[5] = test system: S310 (DNA, single strand) CCAGCTCTGCTTTGCATCTTT; assay: EMSA, inhibition of Topo IIIα binding; conditions: 100 mM NaCl; 50 mM HEPES pH 7.9, room temperature; 50 nM Topo IIIα; 20 nM DNA; up to 10 µM telomestatin; indirect
[6] = target: T1, Topoisomerase IIIα (Topo III) (human, UniProt Q13472 1-1001); assay: EMSA; no ligand; probe 20 nM, Topo III 50 nM; 50 mM HEPES pH 7.9, 100 mM NaCl, 0.1 mM EDTA, 4% sucrose, 2% glycerol, 0.1 mg/mL BSA, 0.02% bromophenol blue, 20 nM probe, room temperature 30 min; 1% agarose; conditions: protein: recombinant; label: 32P; single strand
T1 sequence: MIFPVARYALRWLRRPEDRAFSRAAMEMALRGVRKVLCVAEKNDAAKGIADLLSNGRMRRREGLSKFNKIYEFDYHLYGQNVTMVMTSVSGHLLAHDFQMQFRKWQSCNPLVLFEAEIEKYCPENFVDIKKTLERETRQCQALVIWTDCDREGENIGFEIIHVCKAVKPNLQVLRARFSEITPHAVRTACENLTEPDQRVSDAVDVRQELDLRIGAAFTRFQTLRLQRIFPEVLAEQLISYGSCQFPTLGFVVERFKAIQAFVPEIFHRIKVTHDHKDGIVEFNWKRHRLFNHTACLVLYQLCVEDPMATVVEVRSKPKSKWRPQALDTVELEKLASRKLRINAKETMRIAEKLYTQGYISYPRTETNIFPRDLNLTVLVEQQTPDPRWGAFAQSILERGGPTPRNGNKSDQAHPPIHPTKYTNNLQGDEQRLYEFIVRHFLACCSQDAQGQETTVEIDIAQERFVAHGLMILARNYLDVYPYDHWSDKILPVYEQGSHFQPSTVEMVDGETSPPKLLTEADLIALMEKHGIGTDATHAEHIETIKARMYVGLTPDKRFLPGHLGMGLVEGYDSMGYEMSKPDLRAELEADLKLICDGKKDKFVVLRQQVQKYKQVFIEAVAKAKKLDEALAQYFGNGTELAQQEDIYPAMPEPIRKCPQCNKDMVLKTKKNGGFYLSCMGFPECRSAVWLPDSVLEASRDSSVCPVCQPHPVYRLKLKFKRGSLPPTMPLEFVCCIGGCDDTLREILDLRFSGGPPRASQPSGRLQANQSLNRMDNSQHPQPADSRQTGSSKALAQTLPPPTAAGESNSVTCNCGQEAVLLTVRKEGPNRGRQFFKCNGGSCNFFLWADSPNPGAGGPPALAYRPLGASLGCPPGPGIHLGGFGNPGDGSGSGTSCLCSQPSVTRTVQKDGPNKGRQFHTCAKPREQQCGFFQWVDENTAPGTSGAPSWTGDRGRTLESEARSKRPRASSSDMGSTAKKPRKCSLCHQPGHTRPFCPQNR

[7] = target: T1, Topoisomerase IIIα (Topo III); assay: EMSA; no telomestatin; 50 mM HEPES pH 7.9, 100 mM NaCl, 0.1 mM EDTA, 4% sucrose, 2% glycerol, 0.1 mg/mL BSA, 0.02% bromophenol blue, 20 nM probe, room temperature 30 min; 1% agarose; conditions: protein: recombinant
[8] = target: T1, Topoisomerase IIIα (Topo III); assay: competition; unlabelled competitor vs 32P-24C (20 nM), Topo III 50 nM; 50 mM HEPES pH 7.9, 100 mM NaCl, 0.1 mM EDTA, 4% sucrose, 2% glycerol, 0.1 mg/mL BSA, 0.02% bromophenol blue, 20 nM probe, room temperature 30 min; 1% agarose; conditions: protein: recombinant; G4-forming
[9] = target: T1, Topoisomerase IIIα (Topo III); assay: competition; unlabelled competitor vs 32P-24C; more potent than Pu22myc; non-G4 IC50s 4.3-10.1-fold lower than G4 oligos overall; 50 mM HEPES pH 7.9, 100 mM NaCl, 0.1 mM EDTA, 4% sucrose, 2% glycerol, 0.1 mg/mL BSA, 0.02% bromophenol blue, 20 nM probe, room temperature 30 min; 1% agarose; conditions: protein: recombinant; single strand, cannot form G4
[10] = target: T2, hPOT1 (human, UniProt Q9NUX5 1-634); assay: EMSA; no telomestatin; POT1 30 nM, probe 20 nM; 50 mM HEPES pH 7.9, 100 mM NaCl, 0.1 mM EDTA, 4% sucrose, 2% glycerol, 0.1 mg/mL BSA, 0.02% bromophenol blue, 20 nM probe, room temperature 30 min; 1% agarose; conditions: protein: recombinant; label: 32P; G4-forming
T2 sequence: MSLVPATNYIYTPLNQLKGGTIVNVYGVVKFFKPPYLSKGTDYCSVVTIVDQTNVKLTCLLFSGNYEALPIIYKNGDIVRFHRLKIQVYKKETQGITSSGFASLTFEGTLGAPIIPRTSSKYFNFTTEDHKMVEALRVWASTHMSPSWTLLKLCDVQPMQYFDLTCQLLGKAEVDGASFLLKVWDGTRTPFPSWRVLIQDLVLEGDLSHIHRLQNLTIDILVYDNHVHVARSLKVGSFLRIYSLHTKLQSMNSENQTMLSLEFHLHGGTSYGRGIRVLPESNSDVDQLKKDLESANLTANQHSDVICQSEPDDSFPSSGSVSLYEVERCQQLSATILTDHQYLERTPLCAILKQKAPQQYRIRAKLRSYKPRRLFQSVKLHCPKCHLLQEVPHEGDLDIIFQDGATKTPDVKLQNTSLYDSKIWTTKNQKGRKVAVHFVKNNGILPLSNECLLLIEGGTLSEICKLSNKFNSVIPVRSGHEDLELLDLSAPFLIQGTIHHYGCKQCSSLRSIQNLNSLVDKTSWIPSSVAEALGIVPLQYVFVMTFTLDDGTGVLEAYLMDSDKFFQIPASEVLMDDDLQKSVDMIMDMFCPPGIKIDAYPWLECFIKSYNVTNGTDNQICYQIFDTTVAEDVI

IC50 [1]: 300 nM
IC50 [2]: 60 nM
IC50 [3]: 100 nM
IC50 [4]: > 10 µM
binding [5]: no
Molecule: Cc1oc2nc1-c1nc(co1)-c1nc(co1)-c1nc(co1)-c1nc(co1)-c1nc(co1)C1=NC(CS1)c1nc-2c(C)o1 (stereo not shown)

Molecule: CCCTAACCCTAACCCTAACCCTAA (ssDNA) [24C]
binding result [6]: binds

Molecule: GGCTTACGGTTAGCGTTAGGG (ssDNA) [21G mu3 (21Gmu)]
binding result ([7]; label: 32P when used as probe, single strand, cannot form G4): binds

Molecule: GGGTTAGGGTTAGGGTTAGGG (structured_DNA) [21G]
binding result ([7]; label: 32P when used as probe, G4-forming): binds

Molecule: CCAGCTCTGCTTTGCATCTTT (ssDNA) [S310]
binding result ([7]; label: 32P): binds

Molecule: GAGGGTGGGGAGGGTGGGGAAG (structured_DNA) [Pu22myc]
binding signal [8]: ~3 fold higher concentration than Pu22mu needed to inhibit binding

Molecule: GAGGGTGAAGAGGGTGGGGAAG (ssDNA) [Pu22mu]
binding result [9]: binds

Molecule: TTAGGGTTAGGGTTAGGGTTAGGGTT (structured_DNA) [Wt26]
binding result [10]: binds
binding result ([7]; label: 32P, G4-forming): binds
